Positions count from the first letter of the chain named.
T1: recombinant human IL-23 (hrIL-23), produced at Centocor (human, UniProt P29460 23-328)
T1 sequence 1: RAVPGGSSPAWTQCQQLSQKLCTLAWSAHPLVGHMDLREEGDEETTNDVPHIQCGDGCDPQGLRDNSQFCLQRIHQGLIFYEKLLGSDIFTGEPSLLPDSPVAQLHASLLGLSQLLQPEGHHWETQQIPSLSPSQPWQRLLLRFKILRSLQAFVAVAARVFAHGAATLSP
T1 sequence 2: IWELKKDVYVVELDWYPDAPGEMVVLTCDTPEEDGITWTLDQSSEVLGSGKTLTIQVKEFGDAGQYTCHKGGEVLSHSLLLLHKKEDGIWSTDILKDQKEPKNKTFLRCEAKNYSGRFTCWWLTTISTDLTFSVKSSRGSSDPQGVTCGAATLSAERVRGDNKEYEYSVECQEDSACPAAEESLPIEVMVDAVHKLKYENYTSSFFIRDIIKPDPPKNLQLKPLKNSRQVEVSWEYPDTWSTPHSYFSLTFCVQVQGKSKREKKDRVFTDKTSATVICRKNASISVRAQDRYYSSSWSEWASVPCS

B1: MOR05040 mAb (antibody, human IgG1, V domains shown)
VH: QVELVQSGAEVKKPGSSVKVSCKASGGTFSSNYISWVRQAPGQGLEWMGISPGTGINAYYAQKFQGRVTITADESTSTAYMELSSLRSEDTAVYYCARSKKGMYGGWTYPLMMFDLWGQGTLVTVSS
VL: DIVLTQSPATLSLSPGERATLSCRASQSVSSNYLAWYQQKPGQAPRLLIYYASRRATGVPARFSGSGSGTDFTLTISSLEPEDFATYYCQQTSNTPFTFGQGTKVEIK
B2: MOR05030 mAb (antibody, human IgG1, V domains shown)
VH: B1 VH with I50G, S51I, P52I, G53P, T54I, G55F, I56G, N57H, Y59N
VL: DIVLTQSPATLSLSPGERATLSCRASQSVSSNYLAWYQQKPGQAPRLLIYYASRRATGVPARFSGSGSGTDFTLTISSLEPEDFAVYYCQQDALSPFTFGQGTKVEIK
B3: MOR05029 mAb (antibody, human IgG1, V domains shown)
VH: B1 VH with I50G, S51I, P52I, G53P, T54I, G55F, I56G, N57H, Y59N
VL: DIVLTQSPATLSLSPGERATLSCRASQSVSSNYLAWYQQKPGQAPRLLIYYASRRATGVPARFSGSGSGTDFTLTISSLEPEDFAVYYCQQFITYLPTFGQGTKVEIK
B4: MOR04649 mAb (antibody, human IgG1, V domains shown)
VH: QVELVQSGAEVKKPGESLKISCKGSGYSFSNYWIGWVRQMPGKGLEWMGIIDPSNSYTNYSPSFQGQVTISADKSISTAYLQWSSLKASDTAMYYCARWYYKPFDVWGQGTLVTVSS
VL: DIVLTQPPSVSGAPGQRVTISCTGSSSNIGSGYDVHWYQQLPGTAPKLLIYGNSKRPSGVPDRFSGSKSGTSASLAITGLQSEDEADYYCSSWTPSSVVFGGGTKLTVL
B5: MOR05044 mAb (antibody, human IgG1, V domains shown)
VH: B4 VH with D52S, N55G, Y57T, N59W
VL: B4 VL
B6: MOR05041 mAb (antibody, human IgG1, V domains shown)
VH: B4 VH with D52S, S54T, N55G, Y57V, N59W
VL: B4 VL
B7: MOR05059 mAb (antibody, human IgG1, V domains shown)
VH: B4 VH
VL: DIVLTQPPSVSGAPGQRVTISCTGSSSNIGSGYDVHWYQQLPGTAPKLLIYGNSKRPSGVPDRFSGSKSGTSASLAITGLQSEDEADYYCASWTDGLSLVVFGGGTKLTVL
B8: MOR05058 mAb (antibody, human IgG1, V domains shown)
VH: B4 VH
VL: B7 VL with A91S, G96T, L97P, S98N, L99M, V100I
B9: MOR05043 mAb (antibody, human IgG1, V domains shown)
VH: B4 VH with I50F, D52S, S54D, N55G, Y57H, N59W
VL: B4 VL
B10: MOR05046 mAb (antibody, human IgG1, V domains shown)
VH: B4 VH with S54V, N55S, Y57W, N59K
VL: B4 VL
B11: MOR05045 mAb (antibody, human IgG1, V domains shown)
VH: B4 VH with D52S, S54T, N55G, Y57A, N59W
VL: B4 VL
B12: MOR05042 mAb (antibody, human IgG1, V domains shown)
VH: B4 VH with D52S, S54T, N55G, Y57S, N59W
VL: B4 VL
B13: MOR05028 mAb (antibody, human IgG1, V domains shown)
VH: QVELVQSGAEVKKPGSSVKVSCKASGGTFSNYAISWVRQAPGQGLEWMGGIIPVFGFTHYAQKFQGRVTITADESTSTAYMELSSLRSEDTAVYYCARDIYAGMDVWGQGTLVTVSS
VL: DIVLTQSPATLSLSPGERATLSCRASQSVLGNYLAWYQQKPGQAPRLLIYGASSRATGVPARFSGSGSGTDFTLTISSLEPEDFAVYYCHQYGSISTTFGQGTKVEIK
B14: MOR05054 mAb (antibody, human IgG1, V domains shown)
VH: QVELVESGGGLVQPGGSLRLSCAASGFTFSSFGMSWVRQAPGKGLEWVSGIEHKYLSYATLYAASVKGRFTISRDNSKNTLYLQMNSLRAEDTAVYYCARYWGTPYLMQFDNWGQGTLVTVSS
VL: DIALTQPASVSGSPGQSITISCTGTSSDVGGYNSVSWYQQHPGKAPKLMIYSVSSRPSGVSNRFSGSKSGNTASLTISGLQAEDEADYYCSSYDTNKPLVVFGGGTKLTVL
B15: MOR05051 mAb (antibody, human IgG1, V domains shown)
VH: B14 VH with G50Q, A59T
VL: B14 VL
B16: MOR05055 mAb (antibody, human IgG1, V domains shown)
VH: B14 VH with G50N, S57G, L61V
VL: B14 VL
B17: MOR05050 mAb (antibody, human IgG1, V domains shown)
VH: B14 VH with G50S, L56T, S57G, A59T, L61Y, S65P
VL: B14 VL
B18: MOR05056 mAb (antibody, human IgG1, V domains shown)
VH: B14 VH with G50S, L61Y, S65G
VL: B14 VL
B19: MOR05047 mAb (antibody, human IgG1, V domains shown)
VH: B14 VH with G50N, S57G, L61S
VL: B14 VL
B20: MOR05048 mAb (antibody, human IgG1, V domains shown)
VH: B14 VH with G50N, Y55F, L56M, S57G, A59T, L61Y, S65G
VL: B14 VL
B21: MOR05052 mAb (antibody, human IgG1, V domains shown)
VH: B14 VH with G50S, A59T, L61F
VL: B14 VL
B22: MOR05053 mAb (antibody, human IgG1, V domains shown)
VH: B14 VH with G50N, L56T, A59T, L61Y
VL: B14 VL
B23: MOR05038 mAb (antibody, human IgG1, V domains shown)
VH: QVELVQSGAEVKKPGSSVKVSCKASGGTFSSNYISWVRQAPGQGLEWMGINAHLGGTWYAQKFQGRVTITADESTSTAYMELSSLRSEDTAVYYCARSKKGMYGGWTYPLMMFDLWGQGTLVTVSS
VL: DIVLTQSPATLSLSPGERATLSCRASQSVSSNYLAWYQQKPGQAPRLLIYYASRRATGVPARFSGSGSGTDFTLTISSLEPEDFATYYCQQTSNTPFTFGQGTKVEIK

Molecular target: T1, recombinant human IL-23 (hrIL-23), …
Test: cell-based or functional assay

Binder | IC50, inhibition of IL-17 production [µg/mL]
B1 | 0.00264
B2 | 0.0646
B3 | 0.0491
B4 | 0.276
B5 | 0.0141
B6 | 0.00301
B7 | 0.0106
B8 | 0.00285
B9 | 0.0144
B10 | 0.0428
B11 | 0.0014
B12 | 0.00127
B13 | 0.104
B14 | 0.00323
B15 | 0.0663
B16 | 0.0916
B17 | 0.0277
B18 | 0.092
B19 | 0.0234
B20 | 0.0162
B21 | 0.0178
B22 | 0.00493
B23 | 0.0282

Reference: patent US20180291096A1 (Janssen / Centocor, published 2018)
